From patent US5447852A, “DNA encoding cyclophilin C, and recombinant methods employing it” (The Board of Trustees of the Leland Stanford Junior …, priority 1993, dated 1995)
One block for each compound: values may come before it.

Tests used:
[1] = target: cyp C-GST fusion protein (glutathione-s-transferase fused to aa 16-212 of murine cyclophilin C), without CsA (murine)
[2] = target: cyp C:p77 complex (cyp C-GST fusion protein and 77Kd protein) (Mus musculus, UniProt P30412)
Description: (§1) FIG. 6. […] Control samples were incubated with 10 μg of GST. Experimental samples were incubated with 10 μg of cyp C-GST fusion protein plus the indicated drug concentration.
(§2) 10^7 TCA precipitable counts of labeled lysate were used per reaction. Reaction volumes were brought up to 1 ml in lysis buffer. Each reaction was precleared by incubation with 10 μg of glutathione-s-transferase (GST) and 100 μl of 50% glu-ag solution for 2 hours at 4° C. with gentle agitation. Reactions were spun 5 minutes in a microfuge at 4° C., and the pellets were discarded. To the precleared lysates, 10 μg of cyp C fusion protein was added, along with 30 μl of a 50% solution of glu-ag. Reactions were incubated at 4° with gentle agitation for 3-4 hours, at which time tubes were spun 5 minutes in a microfuge at 4° C., and the supernatants were removed. Glu-ag pellets were washed 4× with 1 ml of cold lysis buffer, being transferred to a fresh tube for the final wash. […], and the pellet was resuspended in 50- 100 μl of SDS-PAGE sample buffer containing β-mercaptoethanol. Samples were boiled 5 minutes and loaded onto 9.5% SDS-PAGE gels. Gels were stained/fixed in methanol: acetic acid: coomassie blue, and destained in methanol: acetic acid.

[3] = system: cyp C mRNA in AC 6 cells; assay: Northern analysis of cyp C mRNA in AC 6 cells; assay type: cell-based, murine
Description: Purified inserts were labeled by random priming in the presence of 50 μCi [alpha-32P] dCTP (Amersham) and were purified by chromatography over a Sephadex G-50 column. […] RNA was blotted onto nitrocellulose filters and prehybridized and hybridized in a solution containing 50% formamide, 6×SSC, 5×Denhardt's solution, 5 mM NaPO4, 100 ug/ml sheared, denatured salmon sperm DNA, and 50 ug/ml yeast tRNA. Labeled cDNA probe, prepared as described above, was hybridized for 16 hours at 45° C. for 30 minutes, followed by washing in 0.2×SSC plus 0.1% SDS at 65° C. for 30 minutes. Filters were then placed on film for autoradiographic visualization.
Twenty μg of total RNA from each source was run on a 1.2% agarose formaldehyde gel and blotted onto Genescreen (DuPont) membrane. Filters were hybridized as described above for 18 hours. The final wash conditions were 0.2×SSC, 0.1% SDS at 65° C. […] The autoradiograms presented in the Figure represent exposures of 3 days at -70° C. with an intensifying screen for both the cyp A and the cyp C probes.

[4] = target: T1, cyp C:CsA:p55 complex (cyp C-GST fusion protein and 55Kd protein) (Mus musculus, UniProt P30412); assay: Cyp C affinity reactions with 35S labeled cell lysate: 55Kd protein; assay type: binding, murine; details: AC 6 cells, 77Kd and 55Kd proteins (FIG. 5)
T1 construct: A portion of the cyp C cDNA encoding aa 16-212 was cloned into the bacterial expression vector pGEX 2T; made in house; host or cells: E. coli MC1061 (cyp C-GST); 55Kd protein from labelled AC 6 cell lysate
T1 sequence (P30412 with tags, fused parts or gaps limits assumed): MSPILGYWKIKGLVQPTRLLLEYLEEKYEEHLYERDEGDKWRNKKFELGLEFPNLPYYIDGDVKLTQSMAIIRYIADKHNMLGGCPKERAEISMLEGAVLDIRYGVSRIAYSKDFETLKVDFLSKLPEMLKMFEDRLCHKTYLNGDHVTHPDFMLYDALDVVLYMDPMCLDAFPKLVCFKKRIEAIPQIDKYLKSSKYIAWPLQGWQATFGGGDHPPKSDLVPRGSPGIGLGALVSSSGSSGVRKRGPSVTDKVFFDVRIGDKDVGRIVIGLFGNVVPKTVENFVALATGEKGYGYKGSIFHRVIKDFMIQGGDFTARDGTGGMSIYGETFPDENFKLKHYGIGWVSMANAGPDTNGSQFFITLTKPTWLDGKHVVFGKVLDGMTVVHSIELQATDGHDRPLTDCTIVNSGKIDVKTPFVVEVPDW
Description: as §1, §2

[5] = system: cyp A mRNA in AC 6 cells; assay: Northern analysis of cyp A mRNA in AC 6 cells; assay type: cell-based, murine; details: AC 6 cells (FIG. 3)
Description: Individual bacterial colonies containing phagemid vectors which had undergone two rounds of subtraction were cultured, and plasmid miniprep DNA was prepared from them by the NaOH/SDS, NaAcetate method. cDNA inserts were isolated by digestion of the plasmid DNA with Stu 1 and Hd III followed by low-melt agarose gel electrophoresis. Inserts were visualized by UV light and excised and purified by organic extraction and precipitation for use as templates for ^32 p probe synthesis. Purified inserts were labeled by random priming in the presence of 50 μCi [alpha-32P] dCTP (Amersham) and were purified by chromatography over a Sephadex G-50 column. AC 6MRNA prepared from IL-1 induced and uninduced cultures was electrophoresed on 1.0% formaldehyde-agarose gels using 0.5 μg RNA/lane as described (Sambrook, 1989). RNA was blotted onto nitrocellulose filters and prehybridized and hybridized in a solution containing 50% formamide, 6×SSC, 5×Denhardt's solution, 5 mM NaPO4, 100 ug/ml sheared, denatured salmon sperm DNA, and 50 ug/ml yeast tRNA. Labeled cDNA probe, prepared as described above, was hybridized for 16 hours at 45° C. […], followed by washing in 0.2×SSC plus 0.1% SDS at 65° C. for 30 minutes. Filters were then placed on film for autoradiographic visualization. […]

Sequence of cyp C:p77 complex (cyp C-GST fusion protein and 77Kd protein) (P30412 with tags, fused parts or gaps limits assumed): as above

CsA concentration that completely inhibits the isomerase activity of cyp C [1]: 2 µg/mL
Compound: cyclosporin A (peptide)

effect on the binding of cyp C to the 77Kd protein [2]: no effect
Compound: C=CC[C@@H]1/C=C(\C)C[C@H](C)C[C@H](OC)[C@H]2O[C@@](O)(C(=O)C(=O)N3CCCC[C@H]3C(=O)O[C@H](/C(C)=C/[C@@H]3CC[C@@H](O)[C@H](OC)C3)[C@H](C)[C@@H](O)CC1=O)[C@H](C)C[C@@H]2OC [FK506]

Compound: IL-1: hematopoietic and inflammatory cytokine; unpurified recombinant human IL-1 alpha used for induction of AC 6 cells
elevation of cyp C mRNA in response to IL-1 ([3]; AC 6 cells (FIG. 3)): elevated approximately three-fold
induction of cyp C message levels ([3]; AC 6 stromal cell line treated with IL-1): 2-3 fold
effect of IL-1 in the culture media during metabolic labeling on the associating proteins [4]: no obvious effect
elevation of cyp A mRNA in response to IL-1 [5]: elevated approximately three-fold
